B1: UBX domain-containing protein 6 (Homo sapiens), Q9BZV1 (parent)
chain: MKKFFQEFKADIKFKSAGPGQKLKESVGEKAHKEKPNQPAPRPPRQGPTNEAQMAAAAALARLEQKQSRAWGPTSQDTIRNQVRKELQAEATVSGSPEAPGTNVVSEPREEGSAHLAVPGVYFTCPLTGATLRKDQRDACIKEAILLHFSTDPVAASIMKIYTFNKDQDRVKLGVDTIAKYLDNIHLHPEEEKYRKIKLQNKVFQERINCLEGTHEFFEAIGFQKVLLPAQDQEDPEEFYVLSETTLAQPQSLERHKEQLLAAEPVRAKLDRQRRVFQPSPLASQFELPGDFFNLTAEEIKREQRLRSEAVERLSVLRTKAMREKEEQRGLRKYNYTLLRVRLPDGCLLQGTFYARERLGAVYGFVREALQSDWLPFELLASGGQKLSEDENLALNECGLVPSALLTFSWDMAVLEDIKAAGAEPDSILKPELLSAIEKLL
partner: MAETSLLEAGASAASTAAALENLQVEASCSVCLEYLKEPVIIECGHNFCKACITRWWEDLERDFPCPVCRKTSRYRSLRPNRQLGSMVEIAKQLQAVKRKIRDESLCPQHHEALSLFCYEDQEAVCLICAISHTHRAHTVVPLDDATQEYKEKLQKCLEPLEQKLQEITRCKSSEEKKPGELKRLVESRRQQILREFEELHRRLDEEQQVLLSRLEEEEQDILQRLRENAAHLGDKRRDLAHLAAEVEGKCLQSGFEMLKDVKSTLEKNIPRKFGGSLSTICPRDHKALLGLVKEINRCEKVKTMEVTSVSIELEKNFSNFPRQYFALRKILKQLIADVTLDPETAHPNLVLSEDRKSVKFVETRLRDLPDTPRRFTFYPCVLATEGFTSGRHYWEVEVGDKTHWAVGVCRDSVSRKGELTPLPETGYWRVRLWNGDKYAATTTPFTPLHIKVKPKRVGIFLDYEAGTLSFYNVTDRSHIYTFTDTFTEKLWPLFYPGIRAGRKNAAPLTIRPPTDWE
B2: Casein kinase II subunit alpha (Homo sapiens), P68400 (parent)
chain: MSGPVPSRARVYTDVNTHRPREYWDYESHVVEWGNQDDYQLVRKLGRGKYSEVFEAINITNNEKVVVKILKPVKKKKIKREIKILENLRGGPNIITLADIVKDPVSRTPALVFEHVNNTDFKQLYQTLTDYDIRFYMYEILKALDYCHSMGIMHRDVKPHNVMIDHEHRKLRLIDWGLAEFYHPGQEYNVRVASRYFKGPELLVDYQMYDYSLDMWSLGCMLASMIFRKEPFFHGHDNYDQLVRIAKVLGTEDLYDYIDKYNIELDPRFNDILGRHSRKRWERFVHSENQHLVSPEALDFLDKLLRYDHQSRLTAREAMEHPYFYTVVKDQARMGSSSMPGGSTPVSSANMMSGISSVPTPSPLGPLAGSPVIAAANPLGMPVPAAAGAQQ
B3: F-box/LRR-repeat protein 12 (Homo sapiens), Q9NXK8 (parent)
chain: MATLVELPDSVLLEIFSYLPVRDRIRISRVCHRWKRLVDDRWLWRHVDLTLYTMRPKVMWHLLRRYMASRLHSLRMGGYLFSGSQAPQLSPALLRALGQKCPNLKRLCLHVADLSMVPITSLPSTLRTLELHSCEISMAWLHKQQDPTVLPLLECIVLDRVPAFRDEHLQGLTRFRALRSLVLGGTYRVTETGLDAGLQELSYLQRLEVLGCTLSADSTLLAISRHLRDVRKIRLTVRGLSAPGLAVLEGMPALESLCLQGPLVTPEMPSPTEILSSCLTMPKLRVLELQGLGWEGQEAEKILCKGLPHCMVIVRACPKESMDWWM
B4: Keratin, type I cuticular Ha8 (Homo sapiens), O76015 (parent)
chain: MTSSYSSSSCPLGCTMAPGARNVSVSPIDIGCQPGAEANIAPMCLLANVAHANRVRVGSTPLGRPSLCLPPTCHTACPLPGTCHIPGNIGICGAYGENTLNGHEKETMQFLNDRLANYLEKVRQLEQENAELEATLLERSKCHESTVCPDYQSYFHTIEELQQKILCSKAENARLIVQIDNAKLAADDFRIKLESERSLRQLVEADKCGTQKLLDDATLAKADLEAQQESLKEEQLSLKSNHEQEVKILRSQLGEKLRIELDIEPTIDLNRVLGEMRAQYEAMLETNRQDVEQWFQAQSEGISLQDMSCSEELQCCQSEILELRCTVNALEVERQAQHTLKDCLQNSLCEAEDRFGTELAQMQSLISNVEEQLSEIRADLERQNQEYQVLLDVKTRLENEIATYRNLLESEDCKLPCNPCSTSPSCVTAPCAPRPSCGPCTTCGPTCGASTTGSRF
partner: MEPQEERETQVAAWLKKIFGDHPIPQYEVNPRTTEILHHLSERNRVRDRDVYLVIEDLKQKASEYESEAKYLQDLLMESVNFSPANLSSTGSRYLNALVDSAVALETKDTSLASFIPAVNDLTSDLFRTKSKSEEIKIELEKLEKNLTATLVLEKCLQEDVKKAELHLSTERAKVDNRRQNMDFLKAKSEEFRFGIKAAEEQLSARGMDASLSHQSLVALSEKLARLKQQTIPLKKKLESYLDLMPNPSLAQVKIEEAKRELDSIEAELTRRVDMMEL
B5: Kinetochore protein NDC80 homolog (Homo sapiens), O14777 (parent)
chain: MKRSSVSSGGAGRLSMQELRSQDVNKQGLYTPQTKEKPTFGKLSINKPTSERKVSLFGKRTSGHGSRNSQLGIFSSSEKIKDPRPLNDKAFIQQCIRQLCEFLTENGYAHNVSMKSLQAPSVKDFLKIFTFLYGFLCPSYELPDTKFEEEVPRIFKDLGYPFALSKSSMYTVGAPHTWPHIVAALVWLIDCIKIHTAMKESSPLFDDGQPWGEETEDGIMHNKLFLDYTIKCYESFMSGADSFDEMNAELQSKLKDLFNVDAFKLESLEAKNRALNEQIARLEQEREKEPNRLESLRKLKASLQGDVQKYQAYMSNLESHSAILDQKLNGLNEEIARVELECETIKQENTRLQNIIDNQKYSVADIERINHERNELQQTINKLTKDLEAEQQKLWNEELKYARGKEAIETQLAEYHKLARKLKLIPKGAENSKGYDFEIKFNPEAGANCLVKYRAQVYVPLKELLNETEEEINKALNKKMGLEDTLEQLNAMITESKRSVRTLKEEVQKLDDLYQQKIKEAEEEDEKCASELESLEKHKHLLESTVNQGLSEAMNELDAVQREYQLVVQTTTEERRKVGNNLQRLLEMVATHVGSVEKHLEEQIAKVDREYEECMSEDLSENIKEIRDKYEKKATLIKSSEE
partner: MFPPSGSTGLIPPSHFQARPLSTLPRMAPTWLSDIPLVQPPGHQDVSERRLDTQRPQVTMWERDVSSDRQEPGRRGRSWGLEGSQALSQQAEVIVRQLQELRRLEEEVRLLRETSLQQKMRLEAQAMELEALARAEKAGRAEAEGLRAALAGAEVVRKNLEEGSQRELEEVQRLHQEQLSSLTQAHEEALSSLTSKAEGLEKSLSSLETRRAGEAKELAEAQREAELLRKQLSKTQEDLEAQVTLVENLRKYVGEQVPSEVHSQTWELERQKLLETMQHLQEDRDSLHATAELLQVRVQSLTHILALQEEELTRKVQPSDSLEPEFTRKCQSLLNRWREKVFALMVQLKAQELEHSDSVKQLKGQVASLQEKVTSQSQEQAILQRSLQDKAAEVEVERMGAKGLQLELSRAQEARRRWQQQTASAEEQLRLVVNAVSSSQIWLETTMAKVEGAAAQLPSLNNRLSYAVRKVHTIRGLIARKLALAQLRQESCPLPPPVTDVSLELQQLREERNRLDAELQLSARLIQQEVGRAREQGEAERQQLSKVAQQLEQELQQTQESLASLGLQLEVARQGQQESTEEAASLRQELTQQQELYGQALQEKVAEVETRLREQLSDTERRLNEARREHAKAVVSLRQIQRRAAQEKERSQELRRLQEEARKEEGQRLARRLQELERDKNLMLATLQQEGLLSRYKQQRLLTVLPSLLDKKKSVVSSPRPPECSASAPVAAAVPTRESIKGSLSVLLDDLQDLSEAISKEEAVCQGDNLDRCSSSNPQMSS
B6: Vacuolar protein-sorting-associated protein 25 (Homo sapiens), Q9BRG1 (parent)
chain: MAMSFEWPWQYRFPPFFTLQPNVDTRQKQLAAWCSLVLSFCRLHKQSSMTVMEAQESPLFNNVKLQRKLPVESIQIVLEELRKKGNLEWLDKSKSSFLIMWRRPEEWGKLIYQWVSRSGQNNSVFTLYELTNGEDTEDEEFHGLDEATLLRALQALQQEHKAEIITVSDGRGVKFF
partner: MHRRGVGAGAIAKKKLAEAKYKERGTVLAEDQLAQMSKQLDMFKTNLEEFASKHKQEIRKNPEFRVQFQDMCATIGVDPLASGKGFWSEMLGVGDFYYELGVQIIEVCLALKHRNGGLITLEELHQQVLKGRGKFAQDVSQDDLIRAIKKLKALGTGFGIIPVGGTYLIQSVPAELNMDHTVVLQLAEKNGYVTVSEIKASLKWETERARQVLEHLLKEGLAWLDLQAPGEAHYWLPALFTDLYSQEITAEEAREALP
B7: Pre-B-cell leukemia transcription factor 4 (Homo sapiens), Q9BYU1 (parent)
chain: MAAPPRPAPSPPAPRRLDTSDVLQQIMAITDQSLDEAQARKHALNCHRMKPALFSVLCEIKEKTVVSIRGIQDEDPPDAQLLRLDNMLLAEGVCRPEKRGRGGAVARAGTATPGGCPNDNSIEHSDYRAKLSQIRQIYHSELEKYEQACREFTTHVTNLLQEQSRMRPVSPKEIERMVGAIHGKFSAIQMQLKQSTCEAVMTLRSRLLDARRKRRNFSKQATEVLNEYFYSHLNNPYPSEEAKEELARKGGLTISQVSNWFGNKRIRYKKNMGKFQEEATIYTGKTAVDTTEVGVPGNHASCLSTPSSGSSGPFPLPSAGDAFLTLRTLASLQPPPGGGCLQSQAQGSWQGATPQPATASPAGDPGSINSSTSN
partner: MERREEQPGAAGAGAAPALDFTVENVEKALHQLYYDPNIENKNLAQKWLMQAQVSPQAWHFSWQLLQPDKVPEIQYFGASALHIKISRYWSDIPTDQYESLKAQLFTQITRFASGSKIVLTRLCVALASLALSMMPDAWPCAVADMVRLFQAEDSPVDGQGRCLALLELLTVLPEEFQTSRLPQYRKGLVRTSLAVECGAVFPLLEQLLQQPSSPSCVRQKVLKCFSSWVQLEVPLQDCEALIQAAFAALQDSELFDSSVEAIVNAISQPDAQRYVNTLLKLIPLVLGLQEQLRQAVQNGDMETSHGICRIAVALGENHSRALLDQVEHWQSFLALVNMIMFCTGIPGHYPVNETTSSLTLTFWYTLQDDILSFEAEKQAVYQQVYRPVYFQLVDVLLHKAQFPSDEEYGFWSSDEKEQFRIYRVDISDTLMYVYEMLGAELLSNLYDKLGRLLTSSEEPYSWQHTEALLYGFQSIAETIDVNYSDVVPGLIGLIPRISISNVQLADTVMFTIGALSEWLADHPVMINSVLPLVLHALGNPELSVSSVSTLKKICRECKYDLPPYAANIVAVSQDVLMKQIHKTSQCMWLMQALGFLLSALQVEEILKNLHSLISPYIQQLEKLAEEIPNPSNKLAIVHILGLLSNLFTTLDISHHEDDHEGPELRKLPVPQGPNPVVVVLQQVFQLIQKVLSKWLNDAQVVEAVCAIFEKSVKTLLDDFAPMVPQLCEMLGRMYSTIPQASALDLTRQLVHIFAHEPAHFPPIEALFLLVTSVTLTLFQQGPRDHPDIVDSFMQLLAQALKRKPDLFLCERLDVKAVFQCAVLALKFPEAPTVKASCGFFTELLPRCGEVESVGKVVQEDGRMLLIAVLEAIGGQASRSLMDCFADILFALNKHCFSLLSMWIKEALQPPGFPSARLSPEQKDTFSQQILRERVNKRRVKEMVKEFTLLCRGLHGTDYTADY
B8: Keratin, type I cuticular Ha8 (Homo sapiens), O76015 (parent)
chain: B4 chain
partner: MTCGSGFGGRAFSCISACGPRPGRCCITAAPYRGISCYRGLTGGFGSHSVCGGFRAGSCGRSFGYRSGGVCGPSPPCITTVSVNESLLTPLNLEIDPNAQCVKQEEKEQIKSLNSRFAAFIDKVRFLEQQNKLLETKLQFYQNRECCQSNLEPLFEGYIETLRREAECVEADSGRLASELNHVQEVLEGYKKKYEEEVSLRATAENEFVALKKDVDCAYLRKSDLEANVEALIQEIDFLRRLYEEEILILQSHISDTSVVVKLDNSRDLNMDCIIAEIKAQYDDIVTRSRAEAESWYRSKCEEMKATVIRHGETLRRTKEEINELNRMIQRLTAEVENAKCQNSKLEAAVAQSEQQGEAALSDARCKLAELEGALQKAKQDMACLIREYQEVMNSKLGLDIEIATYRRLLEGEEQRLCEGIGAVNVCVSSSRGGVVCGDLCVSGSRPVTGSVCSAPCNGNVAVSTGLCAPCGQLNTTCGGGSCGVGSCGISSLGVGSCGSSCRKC

In the first assay the parent is B1. The settings on record: with tri39_human TRIM39, Q9HCM9.
With E391K, the “effect of a mutation on the interaction” value was “disrupting interaction strength”.

The variants in a further assay derive from B2. The settings on record: with nfya_human NFYA.
As to K198R, the “effect of a mutation on the interaction” value was “with no effect”.

Variants of B3 are the subject of the next assay. As to conditions: with dock8_human DOCK8, Q8NF50.
Sequence of dock8_human DOCK8, Q8NF50 (Q8NF50 whole entry): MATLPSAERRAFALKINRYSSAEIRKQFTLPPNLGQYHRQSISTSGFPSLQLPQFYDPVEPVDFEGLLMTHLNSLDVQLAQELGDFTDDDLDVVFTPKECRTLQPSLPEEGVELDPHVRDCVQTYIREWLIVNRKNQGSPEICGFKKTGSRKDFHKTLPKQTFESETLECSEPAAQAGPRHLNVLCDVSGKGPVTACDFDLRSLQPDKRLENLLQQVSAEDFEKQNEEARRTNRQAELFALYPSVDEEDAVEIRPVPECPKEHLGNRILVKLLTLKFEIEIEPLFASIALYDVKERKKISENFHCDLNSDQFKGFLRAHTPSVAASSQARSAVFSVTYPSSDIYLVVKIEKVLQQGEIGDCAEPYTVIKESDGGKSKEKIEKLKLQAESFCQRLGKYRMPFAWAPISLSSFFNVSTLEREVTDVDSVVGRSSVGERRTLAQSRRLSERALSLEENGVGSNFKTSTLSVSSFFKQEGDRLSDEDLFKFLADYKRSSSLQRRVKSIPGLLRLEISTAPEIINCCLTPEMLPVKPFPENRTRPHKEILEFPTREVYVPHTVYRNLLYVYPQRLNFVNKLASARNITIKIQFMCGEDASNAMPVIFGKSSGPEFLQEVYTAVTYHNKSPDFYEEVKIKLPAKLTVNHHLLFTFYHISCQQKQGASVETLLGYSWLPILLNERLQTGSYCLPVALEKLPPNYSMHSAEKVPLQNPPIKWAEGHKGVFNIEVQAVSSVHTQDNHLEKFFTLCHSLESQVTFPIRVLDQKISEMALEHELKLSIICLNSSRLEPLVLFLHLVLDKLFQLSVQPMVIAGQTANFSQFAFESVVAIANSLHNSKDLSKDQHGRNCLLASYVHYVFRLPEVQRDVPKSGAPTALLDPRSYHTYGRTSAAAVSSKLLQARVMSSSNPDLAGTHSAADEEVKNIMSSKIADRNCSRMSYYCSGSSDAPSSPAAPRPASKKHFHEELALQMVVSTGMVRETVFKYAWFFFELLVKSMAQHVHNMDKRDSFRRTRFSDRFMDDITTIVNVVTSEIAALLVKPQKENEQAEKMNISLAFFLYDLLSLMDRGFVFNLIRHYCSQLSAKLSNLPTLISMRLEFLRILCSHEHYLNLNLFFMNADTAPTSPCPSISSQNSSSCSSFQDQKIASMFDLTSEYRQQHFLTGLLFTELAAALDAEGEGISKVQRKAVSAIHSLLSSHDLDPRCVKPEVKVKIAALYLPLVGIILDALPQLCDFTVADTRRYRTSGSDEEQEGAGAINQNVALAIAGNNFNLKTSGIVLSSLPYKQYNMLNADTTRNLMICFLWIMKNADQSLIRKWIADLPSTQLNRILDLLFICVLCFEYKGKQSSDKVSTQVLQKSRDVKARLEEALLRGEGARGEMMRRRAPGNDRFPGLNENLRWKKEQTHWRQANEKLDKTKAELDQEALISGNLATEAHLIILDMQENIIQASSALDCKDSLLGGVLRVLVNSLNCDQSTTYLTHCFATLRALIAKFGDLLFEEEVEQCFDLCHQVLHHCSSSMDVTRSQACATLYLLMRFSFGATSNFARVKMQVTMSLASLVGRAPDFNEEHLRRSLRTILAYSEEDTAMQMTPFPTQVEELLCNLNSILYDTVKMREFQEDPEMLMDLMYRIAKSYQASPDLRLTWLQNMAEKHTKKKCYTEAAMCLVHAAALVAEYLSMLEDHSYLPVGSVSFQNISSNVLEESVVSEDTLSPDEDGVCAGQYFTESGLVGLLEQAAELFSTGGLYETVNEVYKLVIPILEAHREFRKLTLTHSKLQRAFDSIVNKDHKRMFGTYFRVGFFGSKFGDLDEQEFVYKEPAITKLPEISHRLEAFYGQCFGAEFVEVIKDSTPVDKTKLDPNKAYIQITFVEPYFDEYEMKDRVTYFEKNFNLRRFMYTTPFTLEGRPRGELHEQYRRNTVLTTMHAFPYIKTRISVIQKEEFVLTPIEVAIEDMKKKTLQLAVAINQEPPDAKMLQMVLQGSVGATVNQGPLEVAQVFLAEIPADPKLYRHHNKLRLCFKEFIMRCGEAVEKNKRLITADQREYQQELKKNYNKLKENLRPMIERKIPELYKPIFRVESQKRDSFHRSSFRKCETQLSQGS
As for I313V, the “effect of a mutation on the interaction” value is “with no effect”.

A further assay covers variants of B4. As to conditions: with haus1_human HAUS1, Q96CS2.
Consider N270K, for which the “effect of a mutation on the interaction” value is on record as “with no effect”.

Another assay covers variants of B4. As to conditions: with haus1_human HAUS1, Q96CS2. This is another data set of the same source.
Regarding D306A, the “effect of a mutation on the interaction” value is “with no effect”.

In the next assay the parent is B5. The settings on record: with cchcr_human CCHCR1, Q8TD31.
Regarding K288E, the “effect of a mutation on the interaction” value was “with no effect”.

In a further assay the parent is B6. As to conditions: with snf8_human SNF8, Q96H20.
As to P58Q, the “effect of a mutation on the interaction” value was “with no effect”.

The variants in a further assay derive from B7. The settings on record: with ipo13_human IPO13, O94829.
Regarding A247T, the “effect of a mutation on the interaction” value was “disrupting interaction strength”.

The variants in the next assay derive from B8. As to conditions: with krt81_human KRT81, Q14533.
As for D306A, the “effect of a mutation on the interaction” value was “with no effect”.

The variants in a further assay derive from B8. As to conditions: with krt81_human KRT81, Q14533. The source holds these as a separate data set.
As for N270K, the “effect of a mutation on the interaction” value is reported as “with no effect”.

(Values after IntAct's records for PubMed 29892012.)
